Source: patent publication US20130323813, “PEPTIDES FOR THE SPECIFIC BINDING OF RNA TARGETS” (THE UNIVERSITY OF WESTERN AUSTRALIA, published 2013)
Changes are numbered by the printed parent chain.

Columns and labels:
[1] = target: T1, PUM1 PUF GR (repeat 6 Gly12/Arg16) (Homo sapiens, UniProt Q14671 SEQ:1-351); experiment: EMSA; 10 mM HEPES pH 8.0, 50 mM KCl, 1 mM EDTA, RT; conditions: tags: intein-CBD cleaved for EMSA; label: 5'-fluorescein
T1 chain: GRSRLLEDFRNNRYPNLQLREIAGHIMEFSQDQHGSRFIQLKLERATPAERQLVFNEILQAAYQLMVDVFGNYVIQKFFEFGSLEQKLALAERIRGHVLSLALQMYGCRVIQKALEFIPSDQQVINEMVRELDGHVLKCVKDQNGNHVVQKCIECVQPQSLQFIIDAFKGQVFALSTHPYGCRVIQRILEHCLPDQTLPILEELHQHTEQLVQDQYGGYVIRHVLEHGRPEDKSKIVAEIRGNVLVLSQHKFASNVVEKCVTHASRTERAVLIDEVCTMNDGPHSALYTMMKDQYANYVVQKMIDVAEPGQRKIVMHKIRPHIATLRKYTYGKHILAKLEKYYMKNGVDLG
Experimental: (§1) Purified PUF domains were incubated at room temperature for 30 min with fluorescein labeled RNA oligonucleotides (Dharmacon) in 10 mM HEPES (pH 8.0), 1 mM EDTA, 50 mM KCl, 2 mM DTT, 0.1 mg/ml fatty acid-free BSA, and 0.02% Tween-20.

[2] = target: T2, PUM1 PUF CR (repeat 6 Cys12/Arg16) (Homo sapiens, UniProt Q14671 SEQ:1-351); experiment: EMSA; 10 mM HEPES pH 8.0, 50 mM KCl, 1 mM EDTA, RT; conditions: tags: intein-CBD cleaved for EMSA; label: 5'-fluorescein
T2 chain: T1 chain with G218C
Experimental: as §1

Binder: AUUGCAUAUA (ssRNA) [NREU3C (Fl)]
- binding result [1]: binds
- binding result [2]: binds
